Assay [1] has as its target T1, Streptavidin (unconjugated, EMD Millipore) (UniProt P22629 37-163). The assay can be described thus: single-channel current recording, streptavidin alone, N=12, n=2846.
For assay [2], the target named is T1, Streptavidin (unconjugated, EMD …). The assay can be described thus: single-channel current recording, streptavidin alone, concentration dependence.
For assay [3] the target is unchanged. The experiment in a line: single-channel current recording, calculated from kOff and kOn.
For assay [4] the target is unchanged. The experiment in a line: single-channel current recording, KOff of the lower Ires state taking transient returns to basal conductance as dissociation.
Assay [5] has the same target. The experiment in a line: single-channel current recording, discrete binding events.
The target is the same in assay [6]. The assay can be described thus: single-channel current recording.
Assay [7] shares this target. The assay can be described thus: single-channel current recording, kOff=1/tauOff.
For assay [8] the target is unchanged. The experiment in a line: single-channel current recording, kOn=1/(C*tauOn).
Assay [9] shares this target. The assay can be described thus: single-channel current recording, apparent Kd=kOff/kOn, N=3, n=903.

Consider 3 molecules from patent publication US20240036027A1 (UNIVERSITY OF MASSACHUSETTS, published 2024).

T1 sequence (P22629 37-163 limits assumed): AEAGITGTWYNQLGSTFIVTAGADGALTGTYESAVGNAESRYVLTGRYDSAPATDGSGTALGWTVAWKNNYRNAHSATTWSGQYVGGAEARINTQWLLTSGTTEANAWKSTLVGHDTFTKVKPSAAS

B1: OmpG^L3-FLAG/L6-SA1.1 (designed binder)
chain: MEERNDWHFNIGAMYEIENVEGYGEDMDGLAEPSVYFNAANGPWRIALAYYQEGPVDYSAGKRGTWFDRPELEVHYQFLENDDFSFGLTGGFRNYGYHYVDEPGDYKDDDDKGGKDTANMQRWKIAPDWDVKLTDDLRFNGWLSMYKFANDLNTTGYADTRVETETGLQYTFNETVALRVNYYLERGFNMDDSRNNGEFSTQEIRAYLPLTLGNHSVTPYTRIGLDRWSNWDWQGLEICQNVCYYGDDIEREGHDFNRVGLFYGYDFQNGLSVSLEYAFEWQDHDEGDSDKFHYAGVGVNYSF
notes: Possible glycines beside SA1.1 (primers) not built in; also called multiplex sensor; SA1.1 multiplex sensor
For B1, in assay [1], the koff (usually the first-order rate constant of dissociation) was 0.552 s⁻¹. In [2], the on-rate constant (kon) (as a rule, the rate constant with which the complex forms) is 73200 M⁻¹ s⁻¹. For the same molecule, in assay [3], the Kd is 7.54 µM.

B2: OmpG^L3/L6-SA1.1 (designed binder)
chain: MEERNDWHFNIGAMYEIENVEGYGEDMDGLAEPSVYFNAANGPWRIALAYYQEGPVDYSAGKRGTWFDRPELEVHYQFLENDDFSFGLTGGFRNYGYHYVDEPGLEICQNVCYYGGKDTANMQRWKIAPDWDVKLTDDLRFNGWLSMYKFANDLNTTGYADTRVETETGLQYTFNETVALRVNYYLERGFNMDDSRNNGEFSTQEIRAYLPLTLGNHSVTPYTRIGLDRWSNWDWQGLEICQNVCYYGDDIEREGHDFNRVGLFYGYDFQNGLSVSLEYAFEWQDHDEGDSDKFHYAGVGVNYSF
notes: SA1.1 motif in both loops 3 and 6; also called avidity sensor; avidity nanopore sensor
In [4], B2 showed a dissociation rate constant (koff) of 0.701 s⁻¹. In [5], this molecule came in with a koff of 0.0103 s⁻¹ and a kon of 326000 M⁻¹ s⁻¹. In assay [6], the “fold change of KOff against OmpG^L6-SA1.1” value is about 76 fold and the “fold change of KOn against OmpG^L6-SA1.1” value was about 4.7 fold.

B3: OmpG^L6-SA1.1 (designed binder)
chain: MEERNDWHFNIGAMYEIENVEGYGEDMDGLAEPSVYFNAANGPWRIALAYYQEGPVDYSAGKRGTWFDRPELEVHYQFLENDDFSFGLTGGFRNYGYHYVDEPGKDTANMQRWKIAPDWDVKLTDDLRFNGWLSMYKFANDLNTTGYADTRVETETGLQYTFNETVALRVNYYLERGFNMDDSRNNGEFSTQEIRAYLPLTLGNHSVTPYTRIGLDRWSNWDWQGLEICQNVCYYGDDIEREGHDFNRVGLFYGYDFQNGLSVSLEYAFEWQDHDEGDSDKFHYAGVGVNYSF
notes: also called Loop 6 SA1.1
The molecule B3 returned a koff in [7] of 0.783 s⁻¹. The same molecule had a kon in assay [8] of 69100 M⁻¹ s⁻¹. Also, the Kd in assay [9] amounted to 8.83 µM.
